According to patent US20230071422A1 (BEIJING WISDOMAB BIOTECHNOLOGY, published 2023):

Key:
[1] = biological target: T1, CD123 on the surface of CD123-positive cells (KG-1a, MV-4-11) (human, UniProt P26951 19-378); assay: flow cytometry on MV-4-11 cells, titration from 100 nM, goat anti-human IgG-FITC
T1 construct: whole, on cells; Endogenous CD123 on KG-1a (human acute myeloid leukemia) and MV-4-11 (human acute monocytic leukemia) cells; also called cell surface CD123 antigen; CD123 on the surface of MV-4-11 cells
Procedure: MV-4-11 cells at the logarithmic phase of growth were used and resuspended to 2×10⁶ […] with PBS buffer containing 1% BSA after centrifugation. MV-4-11 cells were plated in a 96-well V-bottom plate at 100 μL/well, and the supernatant was removed after centrifugation. […] The antibodies were added to the wells containing cells and incubated at 4° C. for 1 hour. Then, the plate was washed three times with 200 μL PBS buffer. The goat anti-human IgG-FITC secondary antibody (ZF-0308, ZSGB-BIO) was added to the wells (100 μL/well), and incubated at 4° C. for 30 minutes in the dark. Then, the cells were washed three times with 200 μL of PBS buffer, and resuspended in 100 μL of PBS buffer to detect FITC channel by flow cytometer (ACEA, Novocyte).

[2] = biological target: T2, extracellular region of human CD123 subtype 1 with C-terminal His tag (hCD123-SP1-his) (human (Homo sapiens), UniProt P26951 19-305); assay: SPR, Biacore X100; antibody captured by anti-human IgG (Fc), hCD123-SP1-his as analyte, 1:1 model
T2 construct: Recombinant, expressed in HEK293 cells
T2 sequence: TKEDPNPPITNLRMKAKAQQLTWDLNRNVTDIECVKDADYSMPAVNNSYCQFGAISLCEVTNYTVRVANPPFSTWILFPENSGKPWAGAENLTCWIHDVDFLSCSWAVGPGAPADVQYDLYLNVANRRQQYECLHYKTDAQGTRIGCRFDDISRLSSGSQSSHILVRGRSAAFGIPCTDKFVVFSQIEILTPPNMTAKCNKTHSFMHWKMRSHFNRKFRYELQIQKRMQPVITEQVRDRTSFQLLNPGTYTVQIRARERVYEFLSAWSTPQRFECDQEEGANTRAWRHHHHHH
Procedure: The affinity of anti-CD123 antibodies was determined by surface plasmon resonance using Biacore X100. Related reagents and consumables such as Amino Conjugation Kit (BR-1000-50), Human Antibody Capture Kit (BR-1008-39), CM5 Chip (BR100012) and 10×HBS-EP (BR100669) buffer with pH 7.4 were all purchased from GE healthcare. According to the instructions in the kits, 1-Ethyl-3-(3-dimethylaminopropyl) carbodiimide hydrochloride (EDC) and N-Hydroxysuccinimide (NHS) was used to activate the surface of the carboxylated CM5 chip, and the anti-human IgG (Fc) antibody (capture antibody) was diluted to 25 μg/mL with 10 mM, pH5.0 sodium acetate, followed by an injection with a flow rate at 10 μL/min to achieve a coupling volume of approximately 10,000 response units (RU). Following the injection of the capture antibody, 1 M ethanolamine was injected to block unreacted groups. […] The chip surface was regenerated by injecting 3M MgCl₂ solution at 10 μL/min for 30 s. Association rates (Kₒₙ) and dissociation rates (Koff) were calculated from association and dissociation sensorgrams fitted by a 1:1 binding model using Biacore X100 evaluation software version 2.0.1. The dissociation equilibrium constant (KD) was calculated as the ratio Koff/Kₒₙ.

[3] = biological target: T3, extracellular region of cynomolgus monkey CD3E with C-terminal His tag (mfCD3E-his) (cynomolgus monkey (Macaca fascicularis), UniProt Q95LI5 22-117); assay: SPR, Biacore X100; antibody captured by anti-human IgG (Fc), mfCD3E-his as analyte, 1:1 model
T3 construct: Recombinant, expressed in HEK293 cells
T3 sequence: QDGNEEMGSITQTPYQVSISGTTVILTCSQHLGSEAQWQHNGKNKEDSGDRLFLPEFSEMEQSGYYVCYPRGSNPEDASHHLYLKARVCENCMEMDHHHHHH
Procedure: (§1) The chip surface was regenerated by injecting 3M MgCl₂ solution at 10 μL/min for 30 s. Association rates (Kₒₙ) and dissociation rates (Koff) were calculated from association and dissociation sensorgrams fitted by a 1:1 binding model using Biacore X100 evaluation software version 2.0.1. The dissociation equilibrium constant (KD) was calculated as the ratio Koff/Kₒₙ.

[4] = biological target: T4, extracellular region of human CD3E with C-terminal His tag (hCD3E-his) (human (Homo sapiens), UniProt P07766 23-126); assay: SPR, Biacore X100; antibody captured by anti-human IgG (Fc), hCD3E-his as analyte, 1:1 model
T4 construct: Recombinant, expressed in HEK293 cells
T4 sequence (P07766 other isoform, or with tags, fused parts or gaps limits assumed): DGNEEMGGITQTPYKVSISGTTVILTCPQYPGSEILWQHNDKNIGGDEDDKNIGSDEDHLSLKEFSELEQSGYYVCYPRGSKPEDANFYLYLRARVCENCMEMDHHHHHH
Procedure: as §1

Kd [1]: 7.08 nM
Kd [2]: 0.178 nM
koff [2]: 4.02e-05 s⁻¹
kon [2]: 225000 M⁻¹ s⁻¹
Kd [3]: 11.5 nM
koff [3]: 0.00157 s⁻¹
kon [3]: 137000 M⁻¹ s⁻¹
Kd [4]: 14.1 nM
koff [4]: 0.000797 s⁻¹
kon [4]: 56500 M⁻¹ s⁻¹
B1: bispecific antibody CD3E×CD123 (bispecific antibody, human IgG1, kappa)
heavy 1: EVQLVESGGGLVQPGGSLRLSCAASGFTFSNAWMHWVRQAPGKGLEWVGQIKDKSNNYATYYADAVKGRFTISRDDSKNSLYLQMNSLKTEDTAVYYCRYVHYGVRFFYTMDVWGQGTTVTVSSASTKGPSVFPLAPSSKSTSGGTAALGCLVKDYFPEPVTVSWNSGALTSGVHTFPAVLQSSGLYSLSSVVTVPSSSLGTQTYICNVNHKPSNTKVDKRVEPKSCDKTHTCPPCPAPEFEGGPSVFLFPPKPKDTLMISRTPEVTCVVVDVSHEDPEVKFNWYVDGVEVHNAKTKPREEQYNSTYRVVSVLTVLHQDWLNGKEYKCKVSNKALPASIEKTISKAKGQPREPQVYTLPPCREEMTKNQVSLWCLVKGFYPSDIAVEWESNGQPENNYKTTPPVLDSDGSFFLYSKLTVDKSRWQQGNVFSCSVMHEALHNHYTQKSLSLSPGK
heavy 2: QVQLVQSGAEVKKPGASVKVSCKASGYTFTSYDVSWVRQAPGQRLEWMGWVYPVDGSTKFNEKFKGRVTLTADRSSSTAYMELSSLRSEDTAVYYCARLTYGDFGDAMDYWGQGTLVTVSSASTKGPSVFPLAPSSKSTSGGTAALGCLVKDYFPEPVTVSWNSGALTSGVHTFPAVLQSSGLYSLSSVVTVPSSSLGTQTYICNVNHKPSNTKVDKRVEPKSCDKTHTCPPCPAPEFEGGPSVFLFPPKPKDTLMISRTPEVTCVVVDVSHEDPEVKFNWYVDGVEVHNAKTKPREEQYNSTYRVVSVLTVLHQDWLNGKEYKCKVSNKALPASIEKTISKAKGQPREPQVCTLPPSREEMTKNQVSLSCAVKGFYPSDIAVEWESNGQPENNYKTTPPVLDSDGSFFLVSKLTVDKSRWQQGNVFSCSVMHEALHNHYTQKSLSLSPGK
light: DIVMTQTPLSLSVTPGQPASISCKSSQSLVHSNDNTYLTWYLQKPGQSPQLLIYKVSNRFSGVPDRFSGSGSGTDFTLKISRVEAEDVGVYYCGQGTQYPFTFGQGTKLEIKRTVAAPSVFIFPPSDEQLKSGTASVVCLLNNFYPREAKVQWKVDNALQSGNSQESVTEQDSKDSTYSLSSTLTLSKADYEKHKVYACEVTHQGLSSPVTKSFNRGEC
notes: also called CD3×CD123 BsAb; CD3E×CD123 BsAb
